Experimental data taken from patent US20220323561A1 (ENTEROME S A, published 2022).

Target: T1, HLA-A*0201 molecule expressed on human T2 cells (human)
T1 construct: also called HLA-A2
Assay: T2 cells (HLA-A*0201), anti-HLA-A2 flow cytometry

Row | Binder | binding result
1 | AMNSLSLTV [MS4A1-B43] | binds
2 | VLFGAPAYL [TNFRSF13C-B13] | binds
3 | VLAFVPLGV [CD37-B15] | binds
4 | RVFEHPELV [CD22-B13] | binds
5 | FLAFVPLDV [CD37-B14] | binds

Continued, values first:

Row | binding result | Binder
6 | binds | ILAFVPLYL [CD37-B12]
7 | binds | FLFGAPASA [TNFRSF13C-B11]
8 | binds | YMNSLSLAL (Printed as YMNSLSLAL) [MS4A1-B42]
9 | binds | LLFGAPAGV [TNFRSF13C-B12]
